Consider 3 substances from article PMC3294036.

pKd: −log10 of the molar value. Values joined by “and” are separate entries in the source; they are usually repeats but may differ in a detail not shown here. Equal entries are not always repeated.

What all share (test): FRET or BRET
The target of experiment [1] is AKAP79-CFP, wildtype, full-length (human) (UniProt P24588).
Experiment [2] concerns the target ATTO425-AKAP79(333–408), wildtype (PIAIIIT) (human) (UniProt P24588).
Experiment [3] has as its target ATTO425-AKAP79(333–408) I338P variant (PPAIIIT) (human) (UniProt P24588).
Experiment [4] concerns the target AKAP79-CFP I338P variant (PPAIIIT), full-length (human) (UniProt P24588).

Chain of ATTO425-AKAP79(333–408), wildtype (PIAIIIT) (human) (P24588 333-408): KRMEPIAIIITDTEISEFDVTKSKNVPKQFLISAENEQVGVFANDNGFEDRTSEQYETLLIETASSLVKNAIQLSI
Chain of AKAP79-CFP, wildtype, full-length (human) (P24588 whole entry): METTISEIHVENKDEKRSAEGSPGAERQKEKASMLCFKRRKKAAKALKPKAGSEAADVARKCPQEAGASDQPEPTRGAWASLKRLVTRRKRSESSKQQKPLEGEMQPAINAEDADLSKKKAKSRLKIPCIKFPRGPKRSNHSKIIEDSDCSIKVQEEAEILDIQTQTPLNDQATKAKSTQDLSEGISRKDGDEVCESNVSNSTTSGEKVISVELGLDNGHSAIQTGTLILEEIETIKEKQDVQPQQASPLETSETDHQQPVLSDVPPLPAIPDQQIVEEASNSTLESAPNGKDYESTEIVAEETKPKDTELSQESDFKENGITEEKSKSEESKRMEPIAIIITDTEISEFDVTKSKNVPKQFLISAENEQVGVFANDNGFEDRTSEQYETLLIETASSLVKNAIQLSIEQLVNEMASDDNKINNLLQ
Chain of AKAP79-CFP I338P variant (PPAIIIT), full-length (human) (P24588 whole entry I338P): as the sequence (P24588 whole entry) above, with I338P counted along it
Chain of ATTO425-AKAP79(333–408) I338P variant (PPAIIIT) (human) (P24588 333-408 I338P): as the sequence (P24588 333-408) above, with I6P counted along it

For “CNAα-YFP (from UniProt Q08209 1-521) (enzyme; other documents disagree on this pair)”, in experiment [1], the corrected YFP/CFP fluorescence intensity ratio (treated as 2:1 complex) came out at 6.1 and the stoichiometry N was 1.

Regarding “rhodamine-CN (calcineurin labelled with tetramethylrhodamine acceptor) (from UniProt Q08209;P63098) (complex)”, in experiment [2], the pKd is 6.40 and 6.52; the dissociation rate constant (koff) amounted to 9.96 s⁻¹. Moreover, the half-time of dissociation in experiment [3] is 163 ms.

For “CNAα-YFP (from UniProt Q08209 1-521) (enzyme)”, in experiment [4], the corrected YFP/CFP fluorescence intensity ratio (treated as 1:1 complex) was found to be 8.1 and the corrected YFP/CFP fluorescence intensity ratio (treated as 2:1 complex) was found to be 7.1.
